Measurements reported in the RNAGym collection of RNA variant scans (doi:10.1093/molbev/msab373).

B1: Azoarcus group I ribozyme (parent)
chain: GUGCCUUGCGCCGGGAAACCACGCAAGGGAUGGUGUCAAAUUCGGCGAAACCUAAGCGCCCGCCCGGGCGUAUGGCAACGCCGAGCCAAGCUUCGGCGCCUGCGCCGAUGAAGGUGUAGAGACUAGACGGCACCCACCUAAGGCAAACGCUAUGGUGAAGGCAUAGUCCAGGGAGUGGCGAAAGUCACACAAACCGG

Variants of: B1
Assay: reverse-splicing fitness (ratio to wild type); higher = more active; in vitro selection; Mg2+ level not given
In short: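 An in vitro group I ribozyme library with randomized positions was T7-transcribed and gel-purified. In triplicate, 10 pmol RNA in EPPS pH 7.5 was reacted with 50 pmoles of a 30-nt RNA substrate for 1 h at 37 °C across several added MgCl2 levels (1–48 mM), then stopped with EDTA. Products were reverse transcribed from a substrate-complementary primer, PCR-amplified and sequenced (HiSeq 4000). Fitness is a variant's read proportion after selection over that before, normalised to wild type.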

Variant | reverse-splicing fitness
GUGCCUUGCGCCGGGAAACCACGCAAGGGAUGGUGUCAAAUUCGGCGAAACCUAAGCGCCCGCCCGGGCGUAUGGCAACGCGGAGCCAAGCUUCGGCGCCUGCGCCGAUGGAGGUGUAGGGACUAGACGGCACCCACCUAAGGCCAACGCUAUGGUGAAGGCAUAGUCGAGGGAGAGGCGAAAGUCACACAAACCGG [C82G A111G A120G A145C C169G U176A] | 0.0262
GUGCCUUGCGCCGGGAAACCACGCAAGGGAUGGUGUCAAAUUCGGCGAAACCUAAGCGCCCGCCCGGGCGUAUGGCAACGCGGAGCCAAGCUUCGGCGCCUGCGCCGAUGGAGGUGUAGGGACUAGACGGCACCCACCUAAGGCCAACGCUAUGGUGAAGGCAUAGUCGAGGGAGGGGCGAAAGUCACACAAACCGG [C82G A111G A120G A145C C169G U176G] | 0.00483
GUGCCUUGCGCCGGGAAACCACGCAAGGGAUGGUGUCAAAUUCGGCGAAACCUAAGCGCCCGCCCGGGCGUAUGGCAACGCGGAGCCAAGCUUCGGCGCCUGCGCCGAUGGAGGUGUAGGGACUAGACGGCACCCACCUAAGGCCAACGCUAUGGUGAAGGCAUAGUCGAGGGAGCGGCGAAAGUCACACAAACCGG [C82G A111G A120G A145C C169G U176C] | 0.0207
GUGCCUUGCGCCGGGAAACCACGCAAGGGAUGGUGUCAAAUUCGGCGAAACCUAAGCGCCCGCCCGGGCGUAUGGCAACGCGGAGCCAAGCUUCGGCGCCUGCGCCGAUGGAGGUGUAGGGACUAGACGGCACCCACCUAAGGCCAACGCUAUGGUGAAGGCAUAGUCCAGGGAGCGGCGAAAGUCACACAAACCGG [C82G A111G A120G A145C U176C] | 0.0181
GUGCCUUGCGCCGGGAAACCACGCAAGGGAUGGUGUCAAAUUCGGCGAAACCUAAGCGCCCGCCCGGGCGUAUGGCAACGCGGAGCCAAGCUUCGGCGCCUGCGCCGAUGGAGGUGUAGGGACUAGACGGCACCCACCUAAGGCCAACGCUAUGGUGAAGGCAUAGUCCAGGGAGGGGCGAAAGUCACACAAACCGG [C82G A111G A120G A145C U176G] | 0.0063
GUGCCUUGCGCCGGGAAACCACGCAAGGGAUGGUGUCAAAUUCGGCGAAACCUAAGCGCCCGCCCGGGCGUAUGGCAACGCGGAGCCAAGCUUCGGCGCCUGCGCCGAUGGAGGUGUAGGGACUAGACGGCACCCACCUAAGGCCAACGCUAUGGUGAAGGCAUAGUCCAGGGAGAGGCGAAAGUCACACAAACCGG [C82G A111G A120G A145C U176A] | 0.0154
GUGCCUUGCGCCGGGAAACCACGCAAGGGAUGGUGUCAAAUUCGGCGAAACCUAAGCGCCCGCCCGGGCGUAUGGCAACGCGGAGCCAAGCUUCGGCGCCUGCGCCGAUGGAGGUGUAGGGACUAGACGGCACCCACCUAAGGCCAACGUUAUGGUGAAGGCAUAGUCCAGGGAGCGGCGAAAGUCACACAAACCGG [C82G A111G A120G A145C C150U U176C] | 0.0149
GUGCCUUGCGCCGGGAAACCACGCAAGGGAUGGUGUCAAAUUCGGCGAAACCUAAGCGCCCGCCCGGGCGUAUGGCAACGCGGAGCCAAGCUUCGGCGCCUGCGCCGAUGGAGGUGUAGGGACUAGACGGCACCCACCUAAGGCCAACGUUAUGGUGAAGGCAUAGUCCAGGGAGGGGCGAAAGUCACACAAACCGG [C82G A111G A120G A145C C150U U176G] | 0.00599
GUGCCUUGCGCCGGGAAACCACGCAAGGGAUGGUGUCAAAUUCGGCGAAACCUAAGCGCCCGCCCGGGCGUAUGGCAACGCGGAGCCAAGCUUCGGCGCCUGCGCCGAUGGAGGUGUAGGGACUAGACGGCACCCACCUAAGGCCAACGUUAUGGUGAAGGCAUAGUCCAGGGAGAGGCGAAAGUCACACAAACCGG [C82G A111G A120G A145C C150U U176A] | 0.0118
GUGCCUUGCGCCGGGAAACCACGCAAGGGAUGGUGUCAAAUUCGGCGAAACCUAAGCGCCCGCCCGGGCGUAUGGCAACGCGGAGCCAAGCUUCGGCGCCUGCGCCGAUGGAGGUGUAGGGACUAGACGGCACCCACCUAAGGCCAACGUUAUGGUGAAGGCAUAGUCGAGGGAGAGGCGAAAGUCACACAAACCGG [C82G A111G A120G A145C C150U C169G U176A] | 0.022
GUGCCUUGCGCCGGGAAACCACGCAAGGGAUGGUGUCAAAUUCGGCGAAACCUAAGCGCCCGCCCGGGCGUAUGGCAACGCGGAGCCAAGCUUCGGCGCCUGCGCCGAUGGAGGUGUAGGGACUAGACGGCACCCACCUAAGGCCAACGUUAUGGUGAAGGCAUAGUCGAGGGAGGGGCGAAAGUCACACAAACCGG [C82G A111G A120G A145C C150U C169G U176G] | 0.00557
GUGCCUUGCGCCGGGAAACCACGCAAGGGAUGGUGUCAAAUUCGGCGAAACCUAAGCGCCCGCCCGGGCGUAUGGCAACGCGGAGCCAAGCUUCGGCGCCUGCGCCGAUGGAGGUGUAGGGACUAGACGGCACCCACCUAAGGCCAACGUUAUGGUGAAGGCAUAGUCGAGGGAGCGGCGAAAGUCACACAAACCGG [C82G A111G A120G A145C C150U C169G U176C] | 0.0155
GUGCCUUGCGCCGGGAAACCACGCAAGGGAUGGUGUCAAAUUCGGCGAAACCUAAGCGCCCGCCCGGGCGUAUGGCAACGCGGAGCCAAGCUUCGGCGCCUGCGCCGAUGGAGGUGUAGGGACUAGACGGCACCCACCUAAGGCCAACGUUAUGGUGAAGGCAUAGUCAAGGGAGCGGCGAAAGUCACACAAACCGG [C82G A111G A120G A145C C150U C169A U176C] | 0.00841
GUGCCUUGCGCCGGGAAACCACGCAAGGGAUGGUGUCAAAUUCGGCGAAACCUAAGCGCCCGCCCGGGCGUAUGGCAACGCGGAGCCAAGCUUCGGCGCCUGCGCCGAUGGAGGUGUAGGGACUAGACGGCACCCACCUAAGGCCAACGUUAUGGUGAAGGCAUAGUCAAGGGAGAGGCGAAAGUCACACAAACCGG [C82G A111G A120G A145C C150U C169A U176A] | 0.0167
GUGCCUUGCGCCGGGAAACCACGCAAGGGAUGGUGUCAAAUUCGGCGAAACCUAAGCGCCCGCCCGGGCGUAUGGCAACGCGGAGCCAAGCUUCGGCGCCUGCGCCGAUGGAGGUGUAGGGACUAGACGGCACCCACCUAAGGCCAACGUUAUGGUGAAGGCAUAGUCAAGGGAGGGGCGAAAGUCACACAAACCGG [C82G A111G A120G A145C C150U C169A U176G] | 0.00578
